# In US12679878B2, “CRF2 receptor agonists and their use in therapy” (SANOFI, priority 2020, dated 2026):
# Starred links: 1 amine or outer side, 2 acyl side, 3 side chain; linkers in the order of their positions; H or OH if unused. Non-standard residues stand in square brackets, D forms with d. Residues, ends and D or L forms follow the SMILES beside them. Groups on a side chain read outwards from the residue. No end group written: not given here. *: point of attachment. C16 diacid = O=C(O)CCCCCCCCCCCCCCC(=O)*; γGlu = O=C(O)[C@H](CCC(=O)[*:2])N[*:1]; Palmitoyl = CCCCCCCCCCCCCCCC(=O)*; AEEA = NCCOCCOCC(=O)O; Aib = CC(C)(N)C(=O)O
# T1: human CRF2α receptor (Homo sapiens, UniProt Q13324)
# T1 construct: expressed in transfected cells; host or cells: TeloHEAC
# T1 sequence (Q13324 1-411): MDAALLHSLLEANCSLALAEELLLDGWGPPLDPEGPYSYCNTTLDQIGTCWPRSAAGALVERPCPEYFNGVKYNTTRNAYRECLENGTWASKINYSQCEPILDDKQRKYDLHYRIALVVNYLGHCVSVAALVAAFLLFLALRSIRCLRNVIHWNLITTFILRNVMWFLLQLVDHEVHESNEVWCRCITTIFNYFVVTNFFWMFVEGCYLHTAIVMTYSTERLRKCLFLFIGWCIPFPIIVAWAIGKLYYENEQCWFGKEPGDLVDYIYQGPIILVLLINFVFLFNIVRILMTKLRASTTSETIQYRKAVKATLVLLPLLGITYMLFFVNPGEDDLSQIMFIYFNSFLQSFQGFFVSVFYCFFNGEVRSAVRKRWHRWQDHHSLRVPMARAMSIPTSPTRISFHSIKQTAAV
# T2: CRF1R receptor (anti-target) (UniProt P34998 24-415, limits assumed)
# T2 sequence (looked up): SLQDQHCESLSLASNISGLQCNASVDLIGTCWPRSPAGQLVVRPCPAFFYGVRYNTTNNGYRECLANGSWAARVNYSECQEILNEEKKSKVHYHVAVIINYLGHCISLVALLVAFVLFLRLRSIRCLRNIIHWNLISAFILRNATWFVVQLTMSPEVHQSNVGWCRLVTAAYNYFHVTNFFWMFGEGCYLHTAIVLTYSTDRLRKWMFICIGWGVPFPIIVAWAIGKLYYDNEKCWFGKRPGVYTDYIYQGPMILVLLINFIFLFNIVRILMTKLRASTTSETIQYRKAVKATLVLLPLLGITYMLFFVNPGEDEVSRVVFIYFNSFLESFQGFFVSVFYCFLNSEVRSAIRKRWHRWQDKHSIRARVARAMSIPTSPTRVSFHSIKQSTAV
# B1: peptide of SEQ ID NO: 189 (peptide)
# peptide: IVLSLD[dV]PIKLK([γGlu-C16 diacid])QILLKQERQKK[Aib]RQKAEKNKQILAQV-NH2
# modifications: N-terminus assumed
# SMILES: CC[C@H](C)[C@H](N)C(=O)N[C@H](C(=O)N[C@@H](CC(C)C)C(=O)N[C@@H](CO)C(=O)N[C@@H](CC(C)C)C(=O)N[C@@H](CC(=O)O)C(=O)N[C@@H](C(=O)N1CCC[C@H]1C(=O)N[C@H](C(=O)N[C@@H](CCCCN)C(=O)N[C@@H](CC(C)C)C(=O)N[C@@H](CCCCNC(=O)CC[C@H](NC(=O)CCCCCCCCCCCCCCC(=O)O)C(=O)O)C(=O)N[C@@H](CCC(N)=O)C(=O)N[C@H](C(=O)N[C@@H](CC(C)C)C(=O)N[C@@H](CC(C)C)C(=O)N[C@@H](CCCCN)C(=O)N[C@@H](CCC(N)=O)C(=O)N[C@@H](CCC(=O)O)C(=O)N[C@@H](CCCNC(=N)N)C(=O)N[C@@H](CCC(N)=O)C(=O)N[C@@H](CCCCN)C(=O)N[C@@H](CCCCN)C(=O)NC(C)(C)C(=O)N[C@@H](CCCNC(=N)N)C(=O)N[C@@H](CCC(N)=O)C(=O)N[C@@H](CCCCN)C(=O)N[C@@H](C)C(=O)N[C@@H](CCC(=O)O)C(=O)N[C@@H](CCCCN)C(=O)N[C@@H](CC(N)=O)C(=O)N[C@@H](CCCCN)C(=O)N[C@@H](CCC(N)=O)C(=O)N[C@H](C(=O)N[C@@H](CC(C)C)C(=O)N[C@@H](C)C(=O)N[C@@H](CCC(N)=O)C(=O)N[C@H](C(N)=O)C(C)C)[C@@H](C)CC)[C@@H](C)CC)[C@@H](C)CC)C(C)C)C(C)C
# B2: peptide of SEQ ID NO: 195 (peptide)
# peptide: IVLSLD[dV]PIGLK([γGlu-C16 diacid])QILLKQERQKK[Aib]RQQAETNKRILERV-NH2
# modifications: N-terminus assumed
# SMILES: CC[C@H](C)[C@H](N)C(=O)N[C@H](C(=O)N[C@@H](CC(C)C)C(=O)N[C@@H](CO)C(=O)N[C@@H](CC(C)C)C(=O)N[C@@H](CC(=O)O)C(=O)N[C@@H](C(=O)N1CCC[C@H]1C(=O)N[C@H](C(=O)NCC(=O)N[C@@H](CC(C)C)C(=O)N[C@@H](CCCCNC(=O)CC[C@H](NC(=O)CCCCCCCCCCCCCCC(=O)O)C(=O)O)C(=O)N[C@@H](CCC(N)=O)C(=O)N[C@H](C(=O)N[C@@H](CC(C)C)C(=O)N[C@@H](CC(C)C)C(=O)N[C@@H](CCCCN)C(=O)N[C@@H](CCC(N)=O)C(=O)N[C@@H](CCC(=O)O)C(=O)N[C@@H](CCCNC(=N)N)C(=O)N[C@@H](CCC(N)=O)C(=O)N[C@@H](CCCCN)C(=O)N[C@@H](CCCCN)C(=O)NC(C)(C)C(=O)N[C@@H](CCCNC(=N)N)C(=O)N[C@@H](CCC(N)=O)C(=O)N[C@@H](CCC(N)=O)C(=O)N[C@@H](C)C(=O)N[C@@H](CCC(=O)O)C(=O)N[C@H](C(=O)N[C@@H](CC(N)=O)C(=O)N[C@@H](CCCCN)C(=O)N[C@@H](CCCNC(=N)N)C(=O)N[C@H](C(=O)N[C@@H](CC(C)C)C(=O)N[C@@H](CCC(=O)O)C(=O)N[C@@H](CCCNC(=N)N)C(=O)N[C@H](C(N)=O)C(C)C)[C@@H](C)CC)[C@@H](C)O)[C@@H](C)CC)[C@@H](C)CC)C(C)C)C(C)C
# B3: peptide of SEQ ID NO: 187 (peptide)
# peptide: IVLSLD[dV]PIKLK([γGlu-C16 diacid])QILLKQERQK[Aib]QREQAEKNKQILAQV-NH2
# modifications: N-terminus assumed
# SMILES: CC[C@H](C)[C@H](N)C(=O)N[C@H](C(=O)N[C@@H](CC(C)C)C(=O)N[C@@H](CO)C(=O)N[C@@H](CC(C)C)C(=O)N[C@@H](CC(=O)O)C(=O)N[C@@H](C(=O)N1CCC[C@H]1C(=O)N[C@H](C(=O)N[C@@H](CCCCN)C(=O)N[C@@H](CC(C)C)C(=O)N[C@@H](CCCCNC(=O)CC[C@H](NC(=O)CCCCCCCCCCCCCCC(=O)O)C(=O)O)C(=O)N[C@@H](CCC(N)=O)C(=O)N[C@H](C(=O)N[C@@H](CC(C)C)C(=O)N[C@@H](CC(C)C)C(=O)N[C@@H](CCCCN)C(=O)N[C@@H](CCC(N)=O)C(=O)N[C@@H](CCC(=O)O)C(=O)N[C@@H](CCCNC(=N)N)C(=O)N[C@@H](CCC(N)=O)C(=O)N[C@@H](CCCCN)C(=O)NC(C)(C)C(=O)N[C@@H](CCC(N)=O)C(=O)N[C@@H](CCCNC(=N)N)C(=O)N[C@@H](CCC(=O)O)C(=O)N[C@@H](CCC(N)=O)C(=O)N[C@@H](C)C(=O)N[C@@H](CCC(=O)O)C(=O)N[C@@H](CCCCN)C(=O)N[C@@H](CC(N)=O)C(=O)N[C@@H](CCCCN)C(=O)N[C@@H](CCC(N)=O)C(=O)N[C@H](C(=O)N[C@@H](CC(C)C)C(=O)N[C@@H](C)C(=O)N[C@@H](CCC(N)=O)C(=O)N[C@H](C(N)=O)C(C)C)[C@@H](C)CC)[C@@H](C)CC)[C@@H](C)CC)C(C)C)C(C)C
# Tests used:
# human CRF2α receptor = target: T1, human CRF2α receptor; experiment: cAMP agonism at human CRF2α receptor in TeloHEAC cells, FA modified peptides (Example 19.9); assay type: cell-based; settings: 0% HSA, relative to urocortin 2
# Protocol: Agonism of compounds for human corticotropin-releasing factor 2α (CRF2α receptor) was determined by a functional assay measuring cAMP modulation upon treatment of TeloHEAC cells stably expressing human CRF2α receptor.
# Compounds were dissolved at 0.5 mM in 100% DMSO and serially diluted (1:2) in 100% DMSO for 16 dilutions. 20 nL of each dilution was then transferred to 384-well assay plate using an acoustic droplet ejection instrument. 5 μL of compound buffer (1×HBSS; 20 mM HEPES, 2 mM IBMX, 0% or 0.2% HSA) were then added to each well.
# Prior to use, frozen cells were thawed quickly at 37° C. and washed (5 min at 900 rpm) with 20 mL cell buffer (1×HBSS; 20 mM HEPES). Cells were resuspended in cell buffer and adjusted to a cell density of 800.000 cells/ml.
# 5 μL cells (final dell density: 4000 cells/well) were dispensed in the compound-containing 384-well assay plate and incubated for 30 minutes 37° C.
# The CAMP level in treated cells was determined using the Cisbio 62AM4PEC kit according to manufacturer's instruction. Finally, plates were incubated for 1 h at room temperature before measuring the fluorescence ratio between 665/620 nm.
# The percent activity value (E %) was calculated by setting 100 nM of urocortin 2 (UCN2) as 100%. The in vitro potency of the compounds was quantified by determining the concentrations that caused 50% activation of maximal response (EC50) relative to urocortin 2.
# [1] = target: T2, CRF1R receptor (anti-target); experiment: cell-based or functional assay
Molecule,EC50 (human CRF2α receptor) [nM],CRF1/CRF2 ratio (of EC50) [1],"CRF1 EC50 (cAMP, HTRF) [1] [pM]"
CCCCCCCCCCCCCCCC(=O)N[C@@H](CCC(=O)NCCOCCOCC(=O)NCCOCCOCC(=O)NCCCC[C@H](NC(=O)[C@H](CC(C)C)NC(=O)[C@H](CCCCN)NC(=O)[C@@H](NC(=O)[C@@H]1CCCN1C(=O)[C@H](NC(=O)[C@H](CC(=O)O)NC(=O)[C@H](CC(C)C)NC(=O)[C@H](CO)NC(=O)[C@H](CC(C)C)NC(=O)[C@@H](NC(=O)[C@@H](N)[C@@H](C)CC)C(C)C)C(C)C)[C@@H](C)CC)C(=O)N[C@@H](CCC(N)=O)C(=O)N[C@H](C(=O)N[C@@H](CC(C)C)C(=O)N[C@@H](CC(C)C)C(=O)N[C@@H](CCCCN)C(=O)N[C@@H](CCC(N)=O)C(=O)N[C@@H](CCC(=O)O)C(=O)N[C@@H](CCCNC(=N)N)C(=O)N[C@@H](CCC(N)=O)C(=O)N[C@@H](CCCCN)C(=O)NC(C)(C)C(=O)N[C@@H](CCC(N)=O)C(=O)N[C@@H](CCCNC(=N)N)C(=O)N[C@@H](CCC(=O)O)C(=O)N[C@@H](CCC(N)=O)C(=O)N[C@@H](C)C(=O)N[C@@H](CCC(=O)O)C(=O)N[C@@H](CCCCN)C(=O)N[C@@H](CC(N)=O)C(=O)N[C@@H](CCCCN)C(=O)N[C@@H](CCC(N)=O)C(=O)N[C@H](C(=O)N[C@@H](CC(C)C)C(=O)N[C@@H](C)C(=O)N[C@@H](CCC(N)=O)C(=O)N[C@H](C(N)=O)C(C)C)[C@@H](C)CC)[C@@H](C)CC)C(=O)O [compound 205] (H-IVLSLD[dV]PIKLK([AEEA-AEEA-γGlu-Palmitoyl])QILLKQERQK[Aib]QREQAEKNKQILAQV-NH2; N-terminus assumed),0.32,,
CCCCCCCCCCCCCCCC(=O)N[C@@H](CCC(=O)N[C@@H](CCC(=O)NCCOCCOCC(=O)NCCOCCOCC(=O)NCCCC[C@H](NC(=O)[C@H](CC(C)C)NC(=O)[C@H](CCCCN)NC(=O)[C@@H](NC(=O)[C@@H]1CCCN1C(=O)[C@H](NC(=O)[C@H](CC(=O)O)NC(=O)[C@H](CC(C)C)NC(=O)[C@H](CO)NC(=O)[C@H](CC(C)C)NC(=O)[C@@H](NC(=O)[C@@H](N)[C@@H](C)CC)C(C)C)C(C)C)[C@@H](C)CC)C(=O)N[C@@H](CCC(N)=O)C(=O)N[C@H](C(=O)N[C@@H](CC(C)C)C(=O)N[C@@H](CC(C)C)C(=O)N[C@@H](CCCCN)C(=O)N[C@@H](CCC(N)=O)C(=O)N[C@@H](CCC(=O)O)C(=O)N[C@@H](CCCNC(=N)N)C(=O)N[C@@H](CCC(N)=O)C(=O)N[C@@H](CCCCN)C(=O)NC(C)(C)C(=O)N[C@@H](CCC(N)=O)C(=O)N[C@@H](CCCNC(=N)N)C(=O)N[C@@H](CCC(=O)O)C(=O)N[C@@H](CCC(N)=O)C(=O)N[C@@H](C)C(=O)N[C@@H](CCC(=O)O)C(=O)N[C@@H](CCCCN)C(=O)N[C@@H](CC(N)=O)C(=O)N[C@@H](CCCCN)C(=O)N[C@@H](CCC(N)=O)C(=O)N[C@H](C(=O)N[C@@H](CC(C)C)C(=O)N[C@@H](C)C(=O)N[C@@H](CCC(N)=O)C(=O)N[C@H](C(N)=O)C(C)C)[C@@H](C)CC)[C@@H](C)CC)C(=O)O)C(=O)O [compound 206] (H-IVLSLD[dV]PIKLK([AEEA-AEEA-γGlu-γGlu-Palmitoyl])QILLKQERQK[Aib]QREQAEKNKQILAQV-NH2; N-terminus assumed),0.09,,
B1,,> 500,> 100000
B2,,> 500,> 100000
B3,,> 500,> 100000
